Results: patent US9994616B2, “c-Met protein agonist” (The University of Tokyo, priority 2013, dated 2018)
Bridges are numbered along the chain shown (N, C = ends). Roman numbers before positions name the chains, in order. Where no end group is shown, it is not given here. [ ]: non-standard residue; d: D form. fluorescein = fluorescein fluorescent label attached to the peptide; βAla = NCCC(=O)O

How the values were obtained:
[1] = tested on: human c-Met expressing cells (human SNU-638 cells); test: Localization of fluorescein-modified peptides on c-Met expressing cells (confocal microscopy); type: cell-based; details: 1 μM fluorescein peptide, FIG. 2A
Procedure: To human c-Met expressing cells (human SNU-638 cells) or human c-Met non-expressing cells (human SNU-216 cells) cultured on a glass-bottom dish were added a RPMI1640 medium containing 1 mg/L of Hoechst 33342, a nuclear staining reagent, an anti-human c-Met antibody, and 1 uM of L5-2-fluorescein, D4-3-fluorescein, D5-4-fluorescein, D4-3NMe-fluorescein, or D4-3scr-fluorescein and the resulting mixture was incubated in 5% CO2 at 37° C. for 5 minutes. Then, a RPMI1640 medium containing an HRP-anti-rat secondary antibody and 1 μM of L5-2-fluorescein, D4-3-fluorescein, D5-4-fluorescein, D4-3NMe-fluorescein, or D4-3scr-fluorescein was added and the resulting mixture was incubated in 5% CO2 at 37° C. for 5 minutes.
The cells were washed three times with a D-MEM medium and were microscopically observed in a new RPMI1640 medium. The localization of the peptide was observed using a confocal fluorescence microscope for the microscopic observation.

c-Met [2] = molecular target: T1, c-Met (Homo sapiens, UniProt P08581); test: Activity of dimeric peptide by Phospho-RTK array in EHMES-1 cells; type: cell-based; details: optimum concentration, 10 minutes, FIG. 4
T1 construct: endogenous in cells; host or cells: EHMES-1 (human mesothelioma)
T1 sequence (P08581 25-1390): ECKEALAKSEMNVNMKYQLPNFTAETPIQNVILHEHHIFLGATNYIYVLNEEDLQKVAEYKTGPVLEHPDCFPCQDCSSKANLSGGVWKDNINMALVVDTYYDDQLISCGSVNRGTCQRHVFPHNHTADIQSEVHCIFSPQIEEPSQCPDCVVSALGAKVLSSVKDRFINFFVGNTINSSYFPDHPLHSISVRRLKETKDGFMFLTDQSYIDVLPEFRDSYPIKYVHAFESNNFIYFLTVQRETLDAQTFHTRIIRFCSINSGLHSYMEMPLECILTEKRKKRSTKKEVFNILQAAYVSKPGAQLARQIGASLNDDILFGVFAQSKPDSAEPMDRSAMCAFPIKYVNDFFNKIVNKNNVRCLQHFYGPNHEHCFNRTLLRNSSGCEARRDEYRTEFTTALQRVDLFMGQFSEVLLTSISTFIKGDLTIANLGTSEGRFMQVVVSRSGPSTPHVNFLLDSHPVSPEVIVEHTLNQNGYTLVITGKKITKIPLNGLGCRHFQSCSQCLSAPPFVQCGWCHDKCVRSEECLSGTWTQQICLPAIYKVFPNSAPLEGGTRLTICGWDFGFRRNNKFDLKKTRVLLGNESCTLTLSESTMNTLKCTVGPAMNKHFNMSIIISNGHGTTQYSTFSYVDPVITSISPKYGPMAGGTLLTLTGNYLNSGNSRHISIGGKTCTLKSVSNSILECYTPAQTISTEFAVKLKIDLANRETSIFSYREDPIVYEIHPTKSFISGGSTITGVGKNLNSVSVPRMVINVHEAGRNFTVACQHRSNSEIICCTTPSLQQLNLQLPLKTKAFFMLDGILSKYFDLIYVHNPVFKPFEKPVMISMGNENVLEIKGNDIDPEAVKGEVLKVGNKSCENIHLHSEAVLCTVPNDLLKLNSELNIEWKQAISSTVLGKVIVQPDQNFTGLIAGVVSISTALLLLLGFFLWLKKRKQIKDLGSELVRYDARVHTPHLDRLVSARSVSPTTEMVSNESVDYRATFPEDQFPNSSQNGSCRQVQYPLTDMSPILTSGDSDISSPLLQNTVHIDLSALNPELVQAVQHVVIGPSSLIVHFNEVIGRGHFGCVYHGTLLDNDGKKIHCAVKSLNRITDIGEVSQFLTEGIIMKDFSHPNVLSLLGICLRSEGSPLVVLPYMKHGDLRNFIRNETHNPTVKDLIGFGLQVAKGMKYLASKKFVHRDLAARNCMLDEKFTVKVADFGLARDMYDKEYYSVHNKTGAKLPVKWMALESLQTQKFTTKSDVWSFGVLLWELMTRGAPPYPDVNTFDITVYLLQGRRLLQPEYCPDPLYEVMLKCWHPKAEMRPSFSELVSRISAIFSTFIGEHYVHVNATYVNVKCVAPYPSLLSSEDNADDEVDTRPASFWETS
Procedure: (§1) The optimum concentration of each dimeric peptide was added to cultured EHMES-1 cells derived from human mesothelioma and the resulting mixture was incubated for 10 minutes to stimulate the cells. As a control experiment, 2 nM recombinant human HGF protein was added, followed by incubation for 10 minutes.
The resulting cells were lyzed and the lysate thus obtained was analyzed using Phospho-RTK array (R&D Systems) to evaluate whether or not the c-Met of the cells was phosphorylated.

[3] = tested on: c-Met, Gab1, Akt, and Erk proteins; test: Activity of dimeric peptide by western blotting in EHMES-1 cells; type: cell-based, human; details: 10 minutes, FIG. 5
Procedure: as §1, with “each of the” for “each”, “peptides” for “peptide”, “nM of a” for “nM”
The cells were lysed and the resulting lysate was electrophoresed using a 10% modified polyacrylamide gel. After transcription of the protein thus separated to an Immobilon-P PVDF membrane (Millipore) and blocking with PVDF Blocking Reagent for Can Get Signal (TOYOBO), a primary antibody reaction of it was performed overnight at 4° C. in Can Get Signal Solution 1 (TOYOBO). As the antibody, anti-Met (Millipore, EP1454Y), anti-Phospho-Met Tyr1234/1235 (Cell Signaling Technology, D26), anti-Phospho-Met Tyr1349 (Millipore, 07-808), anti-Akt (Cell Signaling Technology, 11E7), anti-Phospho-Akt Thr308 (Cell Signaling Technology, D25E6), anti-Erk1/2 (Cell Signaling Technology, 137F5), anti-Phospho-Erk1/2 Thr202/Tyr204 (Cell Signaling Technology, D13.14.4E), anti-Gab1 (Cell Signaling Technology), or anti-Phospho-Gab1 Tyr 627 (Cell Signaling Technology, C32H2) was used. Then, a secondary antibody reaction was performed at room temperature for one hour in Can Get Signal Solution 2 (TOYOBO) by using an anti-rabbit antibody HRP conjugate. […]

c-Met-Fc = c-Met-Fc (Homo sapiens, UniProt P08581); test: Binding ability by surface plasmon resonance (SPR, Biacore); details: Table 11, monomer and dimeric peptides
Sequence of c-Met-Fc (P08581 with tags, fused parts or gaps limits assumed): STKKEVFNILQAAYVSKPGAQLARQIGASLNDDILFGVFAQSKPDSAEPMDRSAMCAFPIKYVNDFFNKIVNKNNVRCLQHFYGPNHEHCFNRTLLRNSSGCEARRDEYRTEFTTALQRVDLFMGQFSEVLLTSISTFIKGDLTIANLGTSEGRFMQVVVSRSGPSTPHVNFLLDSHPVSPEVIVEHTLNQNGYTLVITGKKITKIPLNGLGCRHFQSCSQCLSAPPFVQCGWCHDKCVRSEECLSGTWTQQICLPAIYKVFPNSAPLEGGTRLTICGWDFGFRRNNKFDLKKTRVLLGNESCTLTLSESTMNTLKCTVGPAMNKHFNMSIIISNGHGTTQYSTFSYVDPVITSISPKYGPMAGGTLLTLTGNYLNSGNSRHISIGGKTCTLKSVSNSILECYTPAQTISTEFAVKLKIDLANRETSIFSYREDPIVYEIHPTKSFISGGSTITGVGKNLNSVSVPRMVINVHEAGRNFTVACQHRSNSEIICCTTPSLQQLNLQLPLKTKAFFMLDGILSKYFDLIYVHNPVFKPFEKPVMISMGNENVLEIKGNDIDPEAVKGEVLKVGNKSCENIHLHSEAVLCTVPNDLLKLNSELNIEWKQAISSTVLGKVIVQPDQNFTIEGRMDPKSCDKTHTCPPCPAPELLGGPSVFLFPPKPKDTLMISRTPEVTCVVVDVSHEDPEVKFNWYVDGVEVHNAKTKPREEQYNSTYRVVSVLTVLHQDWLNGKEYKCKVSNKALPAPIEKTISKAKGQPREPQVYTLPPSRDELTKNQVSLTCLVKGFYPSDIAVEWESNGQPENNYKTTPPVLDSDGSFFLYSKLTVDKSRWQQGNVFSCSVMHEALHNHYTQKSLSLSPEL
Sequence of c-Met-Fc (P08581 25-307 limits assumed): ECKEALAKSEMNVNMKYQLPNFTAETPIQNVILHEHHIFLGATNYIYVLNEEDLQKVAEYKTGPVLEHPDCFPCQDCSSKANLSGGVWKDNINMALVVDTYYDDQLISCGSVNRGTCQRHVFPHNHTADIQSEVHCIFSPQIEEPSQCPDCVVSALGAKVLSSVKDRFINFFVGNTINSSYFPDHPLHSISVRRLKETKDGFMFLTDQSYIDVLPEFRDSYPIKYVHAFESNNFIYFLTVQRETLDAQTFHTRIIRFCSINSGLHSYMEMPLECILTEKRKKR
Procedure: Binding ability of the thioether macrocyclic peptide was evaluated by SPR measurement using Biacore (GE Healthcare).
As a sensor chip, Sensor Chip CM5 was used and an anti-IgG antibody was immobilized on a measurement lane and a control lane by using Human Antibody Capture Kit.
On the measurement lane was immobilized c-Met-Fc, while on the control lane was immobilized Fc protein.
As a running buffer, HBS-EP+ buffer containing 0.1% DMSO was used and a dissociation constant of the thioether macrocyclic peptide was calculated at 5 different concentrations by using the single-kinetics method.

human Hcc-827 cells = test: Cell growth of Iressa-inhibited Hcc-827 cells (MTS assay); type: cell-based; details: Table 13, Hcc-827 cells inhibited by Iressa
Procedure: Dimeric peptides were added to human Hcc-827 cells whose cell growth was inhibited by the addition of Iressa and the resulting mixture was cultured to activate the cell growth ability via a c-Met signaling pathway. The cell count of the thus-cultured cells was quantitatively determined by the assay using MTS (3-(4,5-dimethylthiazol-2-yl)-5-(3carboxymethoxyphenyl)-2-(4-sulphophenyl)-2H-tetrazolium, inner salt).

c-Met [4] = molecular target: T1, c-Met; test: Activity of dimeric peptide by ELISA (c-Met phosphorylation level in EHMES-1 cells); type: cell-based; details: for Activity (c-Met phosphorylation level by ELISA): Table 12, EHMES-1 cells, 10 minutes stimulation; for c-Met phosphorylation: Table 13
Procedure: Each dimeric peptide was added to human EHMES-1 cells and the mixture was incubated for 10 minutes to stimulate the cells.
As a control experiment, a recombinant human HGF protein was added and the mixture was incubated for 10 minutes to stimulate cells.
A phosphorylation level of c-Met was quantitatively analyzed using ELISA.

human HuCCT1 cells = test: Cell migration of HuCCT1 cells on pore-containing plate; type: cell-based; details: Table 13
Procedure: In addition, human HuCCT1 cells were seeded on a pore-containing plate and cultured in a medium mixed with each of the dimeric peptides to evaluate activation of cell migration ability.

Substance	Binding to c-Met expressing cells [1]	Autophosphorylation of c-Met (Phospho-RTK array) (c-Met [2])	Phosphorylation of c-Met, Gab1, Akt, and Erk proteins (western blotting) [3]	ka (c-Met-Fc)	kd (c-Met-Fc)	Cell growth (human Hcc-827 cells)	Activity (c-Met phosphorylation level by ELISA) (c-Met [4])	c-Met phosphorylation (c-Met [4])	Cell migration (human HuCCT1 cells)
D4-3scr-fluorescein: Fluorescein-modified c-Met-unbinding peptide ({CH2CO}-YERVNHLFRNQTWDRCGK(fluorescein); thioether N-16 (inferred)) [reference compound]	does not bind	–	–	–	–	–	–	–	–
HGF: recombinant human HGF protein, natural ligand of c-Met, control	–	autophosphorylation is induced	promote phosphorylation	–	–	–	–	–	–
L5-2 BMH: dimeric peptide: two L5-2 macrocycles linked through C-terminal Cys by BMH linker ({CH2CO}-YISWNEFNSPNWRFITCG[βAla]C-NH2; thioether N-17; not fully specified (residue 20); also: dimer: two copies joined by BMH, linker at 20 via BMH, other end not in the chain)	–	–	–	0.083 10^6 M^−1s^−1	0.054 10^−2 s^−1	Activate	Low	Promote	–
D4-3NMe-fluorescein: Fluorescein-modified N-methylated D4-3 peptide ({CH2CO}-[dY]RQFNRRTHEVWNLDCGK(fluorescein); thioether N-16; also: two amino acids N-methylated (N6 + N16))	colocalized with and bind to	–	–	–	–	–	–	–	–
D4-3 Bis-MAL-PEG11: dimeric peptide: two D4-3 macrocycles linked through C-terminal Cys by Bis-MAL-PEG11 linker ({CH2CO}-[dY]RQFNRRTHEVWNLDCGC; thioether N-16; not fully specified (residue 18); also: dimer: two copies joined by Bis-MAL-PEG11, linker at 18 via Bis-MAL-PEG11, other end not in the chain)	–	–	–	1.2 10^6 M^−1s^−1	0.11 10^−2 s^−1	–	High	Promote	Activate
D4-3 BMH: dimeric peptide: two D4-3 macrocycles linked through C-terminal Cys by BMH linker ({CH2CO}-[dY]RQFNRRTHEVWNLDCGC; thioether N-16; not fully specified (residue 18); also: dimer: two copies joined by BMH, linker at 18 via BMH, other end not in the chain)	–	–	–	2.0 10^6 M^−1s^−1	0.091 10^−2 s^−1	Activate	Low	Promote	–
D4-3NMe Bis-MAL-PEG11: dimeric peptide: two D4-3NMe macrocycles linked through C-terminal Cys by Bis-MAL-PEG11 linker ({CH2CO}-[dY]RQFNRRTHEVWNLDCGC; thioether N-16; not fully specified (residue 18); also: two amino acids N-methylated (N6 + N16), dimer: two D4-3NMe macrocycles linked through C-terminal Cys by Bis-MAL-PEG11)	–	–	–	0.49 10^6 M^−1s^−1	0.040 10^−2 s^−1	–	High	Promote	Activate
D5-4 BMH: dimeric peptide: two D5-4 macrocycles linked through C-terminal Cys by BMH linker (peptide 1 {CH2CO}-[dY]WYYAWDQTYKAFPCG; peptide 2 {CH2CO}-[dY]WYYAWDQTYKAFPCG; thioether I:N-I:15, II:N-II:15; not fully specified (C-terminus); also: dimer: two chains joined by BMH through an added C-terminal Cys not in the letters)	–	–	–	0.046 10^6 M^−1s^−1	0.055 10^−2 s^−1	Activate	High	Promote	–
D4-3-fluorescein: Fluorescein-modified D4-3 peptide, fluorescein on the side chain of C-terminal lysine ({CH2CO}-[dY]RQFNRRTHEVWNLDCGK(fluorescein); thioether N-16)	colocalized with and bind to	–	–	–	–	–	–	–	–
